Data published in patent US20180142007A1 (AXON NEUROSCIENCE, published 2018).
Where a chain is given by its changes, count along the chain named. Each block holds one binder with its values, some of them ahead of it.

Assays:
[1] = biological target: T1, misdisordered truncated tau 151-391/4R (human, UniProt P10636 468-708); experiment: cell-based or functional assay
tau peptide 282-311 = biological target: T2, tau peptide 282-311 (human); experiment: direct ELISA, tau peptide coated on plate
T2 construct: Synthetic peptide (EZBiolabs), numbered on tau 2N4R; also called peptide derived from MTBRII
T2 peptide: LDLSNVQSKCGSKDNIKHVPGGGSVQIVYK

[2] = biological target: T1, misdisordered truncated tau 151-391/4R; experiment: SPR Biacore T200, antibody captured by anti-IgG on CM5 chip, tau 151-391/4R as analyte, steady state analysis
Protocol: Antibody affinity determination was carried out by SPR analysis using a Biacore T200. Anti-human IgG (GE Healthcare, cat. no. BR-1008-39) or anti-murine IgG (GE Healthcare, cat. no. BR-1008-38) was covalently immobilized to a CM5 chip (Cat. no. BR-1005-30) to the point of saturation and in accordance with the manufacturer's instructions. […] Association time was set at 150 sec and disassociation time 300 sec. Tau concentrations were chosen empirically in order to obtain curvature during the association phase. The kinetics of binding/dissociation was initially analyzed according to the 1:1 interaction model using BIAcore T200 evaluation software package 2.0.

[3] = biological target: T1, misdisordered truncated tau 151-391/4R; experiment: binding ELISA, plate coated with Tau 151-391/4R

T1 sequence (P10636 468-708): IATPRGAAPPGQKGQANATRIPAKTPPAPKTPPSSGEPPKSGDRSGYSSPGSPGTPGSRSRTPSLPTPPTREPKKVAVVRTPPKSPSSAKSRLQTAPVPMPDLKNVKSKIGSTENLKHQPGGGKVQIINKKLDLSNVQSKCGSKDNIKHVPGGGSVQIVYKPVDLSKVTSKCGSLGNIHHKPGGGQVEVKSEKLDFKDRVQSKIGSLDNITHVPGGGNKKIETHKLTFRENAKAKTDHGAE

B1: mouse monoclonal antibody DC8E8 (antibody, mouse IgG1)
heavy: QVQLQQSGPELVKPGTSVKMPCKASGYIFTDYVISWVKQRTGQGLEWIGEIFPRSGSTYYNEKFKGKATLTADKSSNTAYMQLSSVTSEDSAVYFCARDYYGTSFAMDYWGQGTSVTVSSAKTTPPSVYPLAPGSAAQTNSMVTLGCLVKGYFPEPVTVTWNSGSLSSGVHTFPAVLQSDLYTLSSSVTVPSSTWPSQTVTCNVAHPASSTKVDKKIVPRDCGCKPCICTVPEVSSVFIFPPKPKDVLTITLTPKVTCVVVDISKDDPEVQFSWFVDDVEVHTAQTKPREEQINSTFRSVSELPIMHQDWLNGKEFKCRVNSAAFPAPIEKTISKTKGRPKAPQVYTIPPPKEQMAKDKVSLTCMITNFFPEDITVEWQWNGQPAENYKNTQPIMDTDGSYFVYSKLNVQKSNWEAGNTFTCSVLHEGLHNHHTEKSLSHSPGK
VL: DIVMSQSPSSLAVSAGEKVTMSCKSSQSLLNSRTRKNYLAWYQQKPGQSPKLLIYWASTRESGVPDRFTGSGSGTDFTLTISSVQAEDLAVYYCKQSFYLRTFGGGTKLDIK
notes: also called murine DC8E8; mouse DC8E8
- amount of fibrillized pathological tau forms (Thioflavin T fluorescence), antibody at 10 uM [1]: < 4.7%
- binding result (tau peptide 282-311): binds
- Kd [2]: ~10 nM

B2: chimeric DC8E8 (isotype not stated where tested) (antibody)
VH: QVQLQQSGPELVKPGTSVKMPCKASGYIFTDYVISWVKQRTGQGLEWIGEIFPRSGSTYYNEKFKGKATLTADKSSNTAYMQLSSVTSEDSAVYFCARDYYGTSFAMDYWGQGTSVTVSS
light: DIVMSQSPSSLAVSAGEKVTMSCKSSQSLLNSRTRKNYLAWYQQKPGQSPKLLIYWASTRESGVPDRFTGSGSGTDFTLTISSVQAEDLAVYYCKQSFYLRTFGGGTKLDIKRTVAAPSVFIFPPSDEQLKSGTASVVCLLNNFYPREAKVQWKVDNALQSGNSQESVTEQDSKDSTYSLSSTLTLSKADYEKHKVYACEVTHQGLSSPVTKSFNRGEC
notes: Whole chimeric antibody with human constant regions; also called chimeric antibody
- amount of fibrillized pathological tau forms (Thioflavin T fluorescence), antibody at 10 uM [1]: < 5.9%
- Kd [2]: ~10 nM

- binding result [3]: binds
B3: AX002, humanized DC8E8 RHB/RKA (isotype not stated where tested) (antibody)
VH: QVQLVQSGPEVKKPGSSVKVPCKASGYIFTDYVISWVKQAPGQGLEWIGEIFPRSGSTYYNEKFKGKATLTADKSTSTAYMELSSLRSEDTAVYFCARDYYGTSFAMDYWGQGTLVTVSS
light: DIVMTQSPLSLPVTPGEPASISCKSSQSLLNSRTRKNYLAWYLQKPGQSPQLLIYWASTRESGVPDRFTGSGSGTDFTLKISRVEAEDVGVYYCKQSFYLRTFGQGTKVEIKRTVAAPSVFIFPPSDEQLKSGTASVVCLLNNFYPREAKVQWKVDNALQSGNSQESVTEQDSKDSTYSLSSTLTLSKADYEKHKVYACEVTHQGLSSPVTKSFNRGEC

- Kd [2]: 9 nM
B4: AX016, humanized DC8E8 RHD/RKB (isotype not stated where tested) (antibody)
VH: B3 VH with P9A, P21S, I28T, T30S, K38R, I48M, K67R, A68V, L70I, F95Y
light: B3 light with T5S
notes: also called AX016 (DB)
